What was measured:
[1] = target: H3K9me3 containing chromatin fibers (12 × 601 arrays with recombinant human histone octamer) (human); experiment: single-molecule TIRF (smTIRF); chromatin fibers immobilised; 3 nM Atto 532-labeled HP1α with 200 nM KAP1; 50 mM Hepes, 130 mM KCl, 10% glycerol; 22°C
[2] = target: H3K9me3 containing chromatin fibers (12 × 601 arrays with recombinant human histone octamer) (human); experiment: single-molecule TIRF (smTIRF); chromatin fibers immobilised; 3 nM Atto 532-labeled HP1α with 50 nM KAP1; 50 mM Hepes, 130 mM KCl, 10% glycerol; 22°C
[3] = target: H3K9me3 containing chromatin fibers (12 × 601 arrays with recombinant human histone octamer) (human); experiment: single-molecule TIRF (smTIRF); chromatin fibers immobilised; 3 nM Atto 532-labeled HP1α with 400 nM KAP1; 50 mM Hepes, 130 mM KCl, 10% glycerol; 22°C
[4] = target: H3K9me3 containing chromatin fibers (12 × 601 arrays with recombinant human histone octamer) (human); experiment: single-molecule TIRF (smTIRF); chromatin fibers immobilised; 3 nM Atto 532-labeled HP1α with 100 nM KAP1; 50 mM Hepes, 130 mM KCl, 10% glycerol; 22°C

Sequence of Atto 532–labeled HP1α (P45973 whole entry): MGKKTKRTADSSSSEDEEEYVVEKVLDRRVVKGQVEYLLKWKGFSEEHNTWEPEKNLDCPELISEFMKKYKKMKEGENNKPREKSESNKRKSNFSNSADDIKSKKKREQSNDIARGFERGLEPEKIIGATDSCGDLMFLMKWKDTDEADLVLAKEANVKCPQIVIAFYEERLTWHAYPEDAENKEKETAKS

kon [1]: 1.43e+06 M⁻¹ s⁻¹
τ (off,1) [1]: 0.27 s
τ (off,2) [1]: 5.47 s
kon [2]: 1.03e+06 M⁻¹ s⁻¹
τ (off,1) [2]: 0.29 s
τ (off,2) [2]: 3.64 s
kon [3]: 770000 M⁻¹ s⁻¹
τ (off,1) [3]: 0.23 s
τ (off,2) [3]: 5.03 s
kon [4]: 1.42e+06 M⁻¹ s⁻¹
τ (off,1) [4]: 0.28 s
τ (off,2) [4]: 5.79 s
Substance: Atto 532–labeled HP1α (from UniProt P45973 1-191) (natural protein)

— publication PMC6701479
